Substitutions are numbered along the chain they refer to. Entries after “also recorded” stand apart in the source; their conditions may differ.
B1: NMC-103: mouse monoclonal antibody of the IgG1 isotype that binds to NMC-P1 (SEQ ID NO:1); VH SEQ ID NO:36, VL SEQ ID NO:37 (antibody, V domains shown)
VH: EVQLQESGGGLVQPGGSLRLSCTTSGFTFTHYYMSWVRQPPGKALEWLGFIRNKAKGYTAEYSASVKGRFTISRDNSQSILYLQMNTLRPEDSATYYCARDIGDNWGQGTLVTVSS
VL: DIVMTQAAFSNPVTLGTSASISCRSSKNLLHSNGITYLYWYLQRPGQSPQLLISRVSNLASGVPNRFSGSESGTDFTLRISRVEAEDVGVYFCAQLLELPYTFGGGTKLEIK
modifications: mAb NMC-103 Heavy Chain Variable Region; mAb NMC-103 Light Chain Variable Region
B2: NMC-H103 (VH4/VK3): humanized NMC-103 variant, human IgG1, VH4 (SEQ ID NO:299) and VK3 (SEQ ID NO:297) (antibody, V domains shown)
VH: B1 VH with Q5V, G16P, P40A, A44G, Q78K, I80T, T87S, P90A, S93T, T95V
VL: B1 VL with A7T, A8P, F9L, N11S, T17Q, S18P, R44K, N65D, R79K, L109V
modifications: human IgG1 constant regions lacking entries; mAb NMC-H103.VH4Heavy Chain Variable Region; mAb NMC-H103.VK3Light Chain Variable Region
B3: NMC-204: mouse monoclonal antibody of the IgG3 isotype that binds to NMC-P2 (SEQ ID NO:2); VH SEQ ID NO:38, VL SEQ ID NO:39 (antibody, V domains shown)
VH: EVQLQESGSVLVRPGASVKLSCKASGDTLSGSWMHWAMQRPGQGLEWIGEIHLNRGTTNYNEKFKGKATVTVDTSSSTAYVDLSSLTSEDSAVYYCARSPGFAYWGQGTLVTVSA
VL: GIVMTQAAPSVPVTPGESVSISCRSSKSLLHSNGNSYLYWFLQRPGQSPQLLIYRMSNLASGVPDRFSGSGSGTAFTLRITRVEAEDVGVYYCMQHLEYPFTFGSGTKLEIK
modifications: mAb NMC-204 Heavy Chain Variable Region; mAb NMC-204 Light Chain Variable Region

What was measured:
Test in all cases: Cell-ELISA on intact cells
Format in all cases: cell-based
[1] = test system: human breast cancer MCF-7 cells; conditions: for relative binding (reactivity) to intact cells, cell-ELISA: MCF-7, mAb 1 μg/mL, fixed, non-permeabilized cells
Experimental: (§1) Cell-ELISA Methodology: 8,000-10,000 cells/well of a 96-well microplate were grown overnight. The next day, unbound cells were washed off with sterile 1×PBS. The cells in each well were fixed with freshly prepared 4% buffered paraformaldehyde (pH 7.2) for 1 hour followed by 3 washes with 1×PBS. The wells were then blocked with 5% BSA in PBS (100 μl/well) for 2 hours at room temperature. Microplate wells were then washed 5 times with 300 μl of ice cold 1×PBS. MAbs NMC-103, NMC-204 or NMC-303 at 1 μg/mL in 1% BSA/PBS were then incubated with various cancer or normal untransformed cells for 2 hours at room temperature. Wells were then washed with 300 μl of ice-cold 1×PBS for 5 times and corresponding secondary antibody HRP-GaM F(ab′)2 diluted 1:2500 or 1:5000 in PBS with 1% BSA were added at 100 μl/well for 1 hour at room temperature followed by washing 5 times with 300 μl of ice-cold 1×PBS. TMB Substrate Solution (1-Step™ Ultra TMB-ELISA, ThermoFisher, Cat. No. 34028) was then added at 50 μL to each microplate well and incubated at room temperature for 30 minutes. The reaction was stopped by addition of 50 μL of stop solution (ThermoFisher, Cat. No. SS04) to each well and absorbance of each well was measured at OD450 nm. The absorbance value of each experimental well was corrected for the absorbance value obtained from wells treated with isotype-identical mAbs included in each experiment. The results are thus expressed as “relative binding”.
(§2) In a 96-well microplate, 15,000 cells/well were cultured overnight. The next day, unbound cells were washed off with sterile 1×PBS. The cells in each well were fixed with freshly prepared 4% buffered paraformaldehyde (pH 7.2) for 1 hour, followed by 3 washes with 1×PBS. The wells were then blocked with 5% BSA in PBS (100 μl/well) for 2 hours at room temperature. Microplate wells were then washed 5 times with 300 μl of ice cold 1×PBS. Monoclonal antibodies NMC-H103 (VH4/VK3) or NMC-C303 at 5 μg/mL in 1% BSA/PBS were then incubated with various cancer cells for 2 hours at room temperature. Wells were then washed with 300 μl of ice-cold 1×PBS for 5 times and corresponding secondary antibody HRP-GaH F(ab′)2 diluted 1:2000 or 1:4000 in PBS with 1% BSA were added at 100 μl/well for 1 hour at room temperature followed by washing 5 times with 300 μl of ice-cold 1×PBS. TMB Substrate Solution (1-Step™ Ultra TMB-ELISA, ThermoFisher, Cat. No. 34028) was then added at 50 μL to each microplate well and incubated at room temperature for 30 minutes. The reaction was stopped by addition of 50 μL of stop solution (ThermoFisher, Cat. No. SS04) to each well and absorbance of each well was measured at OD450 nm. The absorbance value of each experimental well was corrected for the absorbance value obtained from wells treated with isotype-identical mAbs included in each experiment.

[2] = test system: human melanoma A2058 cells; conditions: for relative binding (reactivity) to intact cells, cell-ELISA: A2058, mAb 1 μg/mL, fixed, non-permeabilized cells
Experimental: as §1, §2

[3] = test system: human ovarian cancer OVCAR-3 cells; conditions: for relative binding (reactivity) to intact cells, cell-ELISA: OVCAR-3 (resistant to adriamycin, melphalan, cisplatin), mAb 1 μg/mL, fixed, non-permeabilized cells
Experimental: as §1, §2

[4] = test system: human pancreatic cancer MIA PaCa-2 cells; conditions: for binding to intact, EDTA-released MiaPaCa-2 cells, cell-ELISA: EDTA 10 mmols, pH 7.2, 5 min, 37° C.; for relative binding (reactivity) to intact cells, cell-ELISA: MIA PaCa-2, mAb 1 μg/mL, fixed, non-permeabilized cells; for binding to intact MIA PaCa-2 cells when competed with NMC-P2 peptide / binding to intact MIA PaCa-2 cells when competed with soluble NMC-P1 peptide: cell-ELISA peptide competition
Experimental: as §1, §2

[5] = test system: mouse Lewis Lung LL/2 cells; conditions: for relative binding (reactivity) to intact cells, cell-ELISA: LL/2, mAb 1 μg/mL, fixed, non-permeabilized cells
Experimental: as §1, §2

[6] = test system: mouse colon cancer MC-38 cells; conditions: for relative binding (reactivity) to intact cells, cell-ELISA: MC-38, mAb 1 μg/mL, fixed, non-permeabilized cells
Experimental: as §1, §2

[7] = test system: mouse pancreatic Panc02 cells; conditions: for relative binding (reactivity) to intact cells, cell-ELISA: Panc02, mAb 1 μg/mL, fixed, non-permeabilized cells
Experimental: as §1, §2

[8] = test system: primary patient-derived human ovarian cancer OVCA4 cells; conditions: for relative binding (reactivity) to intact cells, cell-ELISA: OVCA4, mAb 1 μg/mL, fixed, non-permeabilized cells
Experimental: as §1, §2

Molecule	relative binding (reactivity) to intact cells, cell-ELISA [1]	relative binding (reactivity) to intact cells, cell-ELISA [2]	relative binding (reactivity) to intact cells, cell-ELISA [3]	binding to intact, EDTA-released MiaPaCa-2 cells, cell-ELISA [4]	relative binding (reactivity) to intact cells, cell-ELISA [4]	binding to intact MIA PaCa-2 cells after pre-incubation with full-length recombinant HDM2 ([4]; cell-ELISA competition)	binding to intact MIA PaCa-2 cells when competed with NMC-P2 peptide [4]	binding to intact MIA PaCa-2 cells when competed with soluble NMC-P1 peptide [4]	relative binding (reactivity) to intact cells, cell-ELISA [5]	relative binding (reactivity) to intact cells, cell-ELISA [6]	relative binding (reactivity) to intact cells, cell-ELISA [7]	relative binding (reactivity) to intact cells, cell-ELISA [8]	binding to intact, un-permeabilized cells, cell-based ELISA ([1]; MCF-7 breast cancer cells, mAb 5 μg/mL)	binding to intact, un-permeabilized cells, cell-based ELISA ([2]; mAb 5 μg/mL)	binding to intact, un-permeabilized cells, cell-based ELISA ([3]; OVCAR-3 ovarian cancer cells, mAb 5 μg/mL)	binding to intact, un-permeabilized cells, cell-based ELISA ([4]; MIAPaCa-2 pancreatic cancer cells, mAb 5 μg/mL)	OD reading / binding after pre-incubation of antibody with NMC-P1 ([5]; LL/2 cells, antibody 5 μg/mL, NMC-P1 at ×10 the concentration of mAbs)	binding to intact, un-permeabilized cells, cell-based ELISA ([6]; MC-38 colon cancer cells, mAb 5 μg/mL)	binding to intact, un-permeabilized cells, cell-based ELISA ([7]; Panc-2 pancreatic cancer cells, mAb 5 μg/mL)	binding to intact, un-permeabilized cells, cell-based ELISA ([8]; OVCA-4 ovarian cancer cells, mAb 5 μg/mL)
B1	reactivity	reactivity	reactivity	bound	reactivity	reduced	did not have any effect	completely abolished	reactivity	reactivity	reactivity	reactivity	–	–	–	–	–	–	–	–
B2	–	–	–	–	–	–	–	–	–	–	–	–	binding	binding	binding	binding	1.09 OD450 (absorbance, unitless)	binding	binding	binding
B3	reactivity	reactivity	reactivity	bound	reactivity; also recorded: reacted	–	competed	not with NMC-P1	reactivity	reactivity	reactivity	reactivity	–	–	–	–	–	–	–	–
